Here are results for one molecule from publication PMC3731569 (Cell Research, 2013).

In the experiment the target is Human DPP4 extracellular domain (residues 39-766) (human, UniProt P27487 39-766). In words: […], ~10 mg/ml in HBS.
Chain of Human DPP4 extracellular domain (residues 39-766) (P27487 39-766): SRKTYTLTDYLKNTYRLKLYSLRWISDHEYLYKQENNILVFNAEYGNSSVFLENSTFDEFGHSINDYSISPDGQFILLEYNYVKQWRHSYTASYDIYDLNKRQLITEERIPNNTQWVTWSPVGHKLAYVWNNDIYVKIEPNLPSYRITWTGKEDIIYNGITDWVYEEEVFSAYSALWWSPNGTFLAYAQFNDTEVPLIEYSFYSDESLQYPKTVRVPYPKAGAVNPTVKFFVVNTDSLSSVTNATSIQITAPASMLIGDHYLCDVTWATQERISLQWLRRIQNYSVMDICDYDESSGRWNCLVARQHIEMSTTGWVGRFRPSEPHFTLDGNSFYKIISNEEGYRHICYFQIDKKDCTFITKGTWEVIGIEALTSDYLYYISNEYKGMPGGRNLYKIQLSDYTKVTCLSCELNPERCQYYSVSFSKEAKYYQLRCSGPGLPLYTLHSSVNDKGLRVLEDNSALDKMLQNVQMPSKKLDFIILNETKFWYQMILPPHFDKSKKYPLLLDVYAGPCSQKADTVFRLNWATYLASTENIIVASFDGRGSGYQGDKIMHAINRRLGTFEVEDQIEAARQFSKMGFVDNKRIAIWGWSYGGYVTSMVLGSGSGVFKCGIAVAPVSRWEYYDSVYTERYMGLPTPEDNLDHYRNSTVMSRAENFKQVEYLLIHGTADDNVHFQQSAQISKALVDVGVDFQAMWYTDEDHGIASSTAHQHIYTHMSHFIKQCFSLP

B1: MERS-CoV RBD (E367 to Y606) (domain or fragment)
chain: EAKPSGSVVEQAEGVECDFSPLLSGTPPQVYNFKRLVFTNCNYNLTKLLSLFSVNDFTCSQISPAAIASNCYSSLILDYFSYPLSMKSDLSVSSAGPISQFNYKQSFSNPTCLILATVPHNLTTITKPLKYSYINKCSRFLSDDRTEVPQLVNANQYSPCVSIVPSTVWEDGDYYRKQLSPLEGGGWLVASGSTVAMTEQLQMGFGITVQYGTDTNSVCPKLEFANDTKIASQLGNCVEY
Take B1: the binding result is on record as “binds”.
